Assay results: article PMC8497999 (iScience, 2021)

Legend:
Assay in all cases: SEC
ACAD9-His6 R469W = target: T1, ACAD9-His6 R469W (human, UniProt Q9H845 38-621, R469W)
T1 sequence: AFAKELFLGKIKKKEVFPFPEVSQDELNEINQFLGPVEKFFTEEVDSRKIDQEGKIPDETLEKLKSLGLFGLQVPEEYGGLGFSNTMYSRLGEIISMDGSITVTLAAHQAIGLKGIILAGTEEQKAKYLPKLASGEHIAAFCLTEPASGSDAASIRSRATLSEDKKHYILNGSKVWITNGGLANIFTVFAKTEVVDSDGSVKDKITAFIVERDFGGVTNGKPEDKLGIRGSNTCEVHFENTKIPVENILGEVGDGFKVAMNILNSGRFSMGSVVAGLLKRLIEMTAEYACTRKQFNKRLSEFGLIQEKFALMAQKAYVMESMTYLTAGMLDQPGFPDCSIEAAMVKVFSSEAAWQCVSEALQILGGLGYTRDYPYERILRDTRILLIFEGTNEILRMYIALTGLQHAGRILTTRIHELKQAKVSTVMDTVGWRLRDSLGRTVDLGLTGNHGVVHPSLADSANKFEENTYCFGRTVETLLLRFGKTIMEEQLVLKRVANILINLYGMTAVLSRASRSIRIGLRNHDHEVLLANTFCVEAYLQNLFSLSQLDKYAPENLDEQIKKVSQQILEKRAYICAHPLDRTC

ACAD9-His6 R518H = target: T2, ACAD9-His6 R518H (human, UniProt Q9H845 38-621, R518H)
T2 sequence: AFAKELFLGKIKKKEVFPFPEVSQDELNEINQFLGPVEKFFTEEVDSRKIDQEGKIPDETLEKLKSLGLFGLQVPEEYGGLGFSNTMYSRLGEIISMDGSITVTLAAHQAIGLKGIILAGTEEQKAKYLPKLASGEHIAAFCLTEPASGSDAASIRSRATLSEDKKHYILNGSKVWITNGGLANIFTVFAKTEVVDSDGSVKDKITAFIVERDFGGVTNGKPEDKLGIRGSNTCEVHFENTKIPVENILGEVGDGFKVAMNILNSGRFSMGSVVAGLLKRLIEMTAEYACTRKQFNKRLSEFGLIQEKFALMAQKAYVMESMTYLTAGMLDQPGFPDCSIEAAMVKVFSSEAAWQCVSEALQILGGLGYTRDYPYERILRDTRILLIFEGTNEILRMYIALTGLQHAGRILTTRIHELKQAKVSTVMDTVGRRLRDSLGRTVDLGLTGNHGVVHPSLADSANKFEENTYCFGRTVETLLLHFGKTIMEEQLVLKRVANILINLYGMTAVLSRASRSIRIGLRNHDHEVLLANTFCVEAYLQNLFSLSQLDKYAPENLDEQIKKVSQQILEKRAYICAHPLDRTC

ACAD9-His6 R532W = target: T3, ACAD9-His6 R532W (human, UniProt Q9H845 38-621, R532W)
T3 sequence: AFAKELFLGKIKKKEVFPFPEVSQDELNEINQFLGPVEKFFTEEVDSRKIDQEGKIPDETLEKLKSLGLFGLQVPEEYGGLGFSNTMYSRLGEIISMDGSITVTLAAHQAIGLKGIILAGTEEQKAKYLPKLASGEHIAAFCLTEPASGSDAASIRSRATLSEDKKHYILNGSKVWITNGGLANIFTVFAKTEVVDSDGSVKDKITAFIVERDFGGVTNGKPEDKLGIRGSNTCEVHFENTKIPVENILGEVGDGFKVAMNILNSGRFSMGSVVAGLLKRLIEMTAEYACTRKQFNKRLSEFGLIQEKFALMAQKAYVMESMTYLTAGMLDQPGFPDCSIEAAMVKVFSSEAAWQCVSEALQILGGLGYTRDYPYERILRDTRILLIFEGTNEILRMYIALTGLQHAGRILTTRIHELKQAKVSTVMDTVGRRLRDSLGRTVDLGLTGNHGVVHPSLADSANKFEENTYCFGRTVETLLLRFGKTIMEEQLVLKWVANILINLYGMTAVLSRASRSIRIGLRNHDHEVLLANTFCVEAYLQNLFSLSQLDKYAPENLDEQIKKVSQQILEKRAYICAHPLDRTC

ACAD9-His6 E426Q = target: T4, ACAD9-His6 E426Q (human, UniProt Q9H845 38-621, E426Q)
T4 sequence: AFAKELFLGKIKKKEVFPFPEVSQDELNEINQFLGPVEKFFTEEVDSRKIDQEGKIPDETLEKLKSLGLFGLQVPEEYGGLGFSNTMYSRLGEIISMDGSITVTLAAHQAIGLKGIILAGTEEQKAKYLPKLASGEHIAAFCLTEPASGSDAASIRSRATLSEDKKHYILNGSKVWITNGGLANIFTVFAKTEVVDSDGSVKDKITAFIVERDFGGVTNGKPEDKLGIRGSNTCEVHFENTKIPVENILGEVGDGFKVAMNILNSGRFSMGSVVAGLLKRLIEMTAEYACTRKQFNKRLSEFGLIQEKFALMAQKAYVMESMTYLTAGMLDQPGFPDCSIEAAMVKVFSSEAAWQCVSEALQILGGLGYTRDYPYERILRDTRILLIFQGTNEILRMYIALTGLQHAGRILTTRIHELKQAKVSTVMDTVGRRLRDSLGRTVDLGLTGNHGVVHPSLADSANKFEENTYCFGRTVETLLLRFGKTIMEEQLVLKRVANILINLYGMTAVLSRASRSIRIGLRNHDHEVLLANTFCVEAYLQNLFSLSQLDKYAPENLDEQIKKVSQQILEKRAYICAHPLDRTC

Measured: binding result

B1: His6-ECSIT (mature human mitochondrial ECSIT with N-terminal His tag) (natural protein)
chain: SSEQSLVPSPPEPRQRPTKALVPFEDLFGQAPGGERDKASFLQTVQKFAEHSVRKRGHIDFIYLALRKMREYGVERDLAVYNQLLNIFPKEVFRPRNIIQRIFVHYPRQQECGIAVLEQMENHGVMPNKETEFLLIQIFGRKSYPMLKLVRLKLWFPRFMNVNPFPVPRDLPQDPVELAMFGLRHMEPDLSARVTIYQVPLPKDSTGAADPPQPHIVGIQSPDQQAALARHNPARPVFVEGPFSLWLRNKCVYYHILRADLLPPEEREVEETPEEWNLYYPMQLDLEYVRSGWDNYEFDINEVEEGPVFAMCMAGAHDQATMAKWIQGLQETNPTLAQIPVVFRLAGSTRELQTSSAGLEEPPLPEDHQEEDDNLQRQQQGQS
binds: ACAD9-His6 R469W | ACAD9-His6 R518H | ACAD9-His6 R532W | ACAD9-His6 E426Q
